The Human Domainome abundance scans (Beltran et al. 2025)
± gives the uncertainty stated by the source.

B1: Apoptosis-associated speck-like protein containing a CARD, residues 114 to 194; numbered along this chain, Q9ULZ3 (parent)
chain: FIDQHRAALIARVTNVEWLLDALYGKVLTDEQYQAVRAEPTNPSKMRKLFSFTPAWNWTCKDLLLQALRESQSYLVEDLER

Variants of: B1
Assay: abundance fitness (aPCA) (normalised: wild type 0, dead -1); higher = more abundant; growth selection in yeast, the domain comes from the species named
Conditions: Homo sapiens

Variant | abundance fitness
FIDQHRAALIARVTNVEWLLDALWGKVLTDEQYQAVRAEPTNPSKMRKLFSFTPAWNWTCKDLLLQALRESQSYLVEDLER [Y24W] | -0.301 ± 0.071
FIDQHRAALIARVTNVEWLLDALYGKVLADEQYQAVRAEPTNPSKMRKLFSFTPAWNWTCKDLLLQALRESQSYLVEDLER [T29A] | -0.585 ± 0.36
FIDQHRAALIARVTNVEWLLDALYLKVLTDEQYQAVRAEPTNPSKMRKLFSFTPAWNWTCKDLLLQALRESQSYLVEDLER [G25L] | -0.45 ± 0.058
FIDQHRAALIARVTNVEWLLDALYKKVLTDEQYQAVRAEPTNPSKMRKLFSFTPAWNWTCKDLLLQALRESQSYLVEDLER [G25K] | 0.025 ± 0.14
FIDQHRAALIARVTNVEWLLDALYAKVLTDEQYQAVRAEPTNPSKMRKLFSFTPAWNWTCKDLLLQALRESQSYLVEDLER [G25A] | -0.43 ± 0.061
FIDQHRAALIARVTNVEWLLDALYVKVLTDEQYQAVRAEPTNPSKMRKLFSFTPAWNWTCKDLLLQALRESQSYLVEDLER [G25V] | -0.779 ± 0.097
FIDQHRAALIARVTNVEWLLDALYSKVLTDEQYQAVRAEPTNPSKMRKLFSFTPAWNWTCKDLLLQALRESQSYLVEDLER [G25S] | -0.701 ± 0.084
FIDQHRAALIARVTNVEWLLDALYFKVLTDEQYQAVRAEPTNPSKMRKLFSFTPAWNWTCKDLLLQALRESQSYLVEDLER [G25F] | -0.931 ± 0.22
FIDQHRAALIARVTNVEWLLDALYRKVLTDEQYQAVRAEPTNPSKMRKLFSFTPAWNWTCKDLLLQALRESQSYLVEDLER [G25R] | -0.445 ± 0.049
FIDQHRAALIARVTNVEWLLDALYIKVLTDEQYQAVRAEPTNPSKMRKLFSFTPAWNWTCKDLLLQALRESQSYLVEDLER [G25I] | -0.543 ± 0.22
FIDQHRAALIARVTNVEWLLDALYDKVLTDEQYQAVRAEPTNPSKMRKLFSFTPAWNWTCKDLLLQALRESQSYLVEDLER [G25D] | -0.255 ± 0.11
FIDQHRAALIARVTNVEWLLDALYPKVLTDEQYQAVRAEPTNPSKMRKLFSFTPAWNWTCKDLLLQALRESQSYLVEDLER [G25P] | 0.191 ± 0.053
FIDQHRAALIARVTNVEWLLDALYHKVLTDEQYQAVRAEPTNPSKMRKLFSFTPAWNWTCKDLLLQALRESQSYLVEDLER [G25H] | -0.213 ± 0.12
FIDQHRAALIARVTNVEWLLDALYCKVLTDEQYQAVRAEPTNPSKMRKLFSFTPAWNWTCKDLLLQALRESQSYLVEDLER [G25C] | -0.582 ± 0.12
FIDQHRAALIARVTNVEWLLDALYQKVLTDEQYQAVRAEPTNPSKMRKLFSFTPAWNWTCKDLLLQALRESQSYLVEDLER [G25Q] | -0.41 ± 0.1
FIDQHRAALIARVTNVEWLLDALYYKVLTDEQYQAVRAEPTNPSKMRKLFSFTPAWNWTCKDLLLQALRESQSYLVEDLER [G25Y] | -0.55 ± 0.3
FIDQHRAALIARVTNVEWLLDALYWKVLTDEQYQAVRAEPTNPSKMRKLFSFTPAWNWTCKDLLLQALRESQSYLVEDLER [G25W] | -0.325 ± 0.077
FIDQHRAALIARVTNVEWLLDALYTKVLTDEQYQAVRAEPTNPSKMRKLFSFTPAWNWTCKDLLLQALRESQSYLVEDLER [G25T] | -0.81 ± 0.16
FIDQHRAALIARVTNVEWLLDALYGWVLTDEQYQAVRAEPTNPSKMRKLFSFTPAWNWTCKDLLLQALRESQSYLVEDLER [K26W] | -0.481 ± 0.044
FIDQHRAALIARVTNVEWLLDALYGAVLTDEQYQAVRAEPTNPSKMRKLFSFTPAWNWTCKDLLLQALRESQSYLVEDLER [K26A] | -0.371 ± 0.078
FIDQHRAALIARVTNVEWLLDALYGGVLTDEQYQAVRAEPTNPSKMRKLFSFTPAWNWTCKDLLLQALRESQSYLVEDLER [K26G] | -0.513 ± 0.062
FIDQHRAALIARVTNVEWLLDALYGDVLTDEQYQAVRAEPTNPSKMRKLFSFTPAWNWTCKDLLLQALRESQSYLVEDLER [K26D] | -0.483 ± 0.11
FIDQHRAALIARVTNVEWLLDALYGTVLTDEQYQAVRAEPTNPSKMRKLFSFTPAWNWTCKDLLLQALRESQSYLVEDLER [K26T] | 0.014 ± 0.073

Variant | abundance fitness
FIDQHRAALIARVTNVEWLLDALYGFVLTDEQYQAVRAEPTNPSKMRKLFSFTPAWNWTCKDLLLQALRESQSYLVEDLER [K26F] | -0.47 ± 0.3
FIDQHRAALIARVTNVEWLLDALYGLVLTDEQYQAVRAEPTNPSKMRKLFSFTPAWNWTCKDLLLQALRESQSYLVEDLER [K26L] | -0.438 ± 0.052
FIDQHRAALIARVTNVEWLLDALYGMVLTDEQYQAVRAEPTNPSKMRKLFSFTPAWNWTCKDLLLQALRESQSYLVEDLER [K26M] | -0.563 ± 0.11
FIDQHRAALIARVTNVEWLLDALYGYVLTDEQYQAVRAEPTNPSKMRKLFSFTPAWNWTCKDLLLQALRESQSYLVEDLER [K26Y] | -0.658 ± 0.3
FIDQHRAALIARVTNVEWLLDALYGHVLTDEQYQAVRAEPTNPSKMRKLFSFTPAWNWTCKDLLLQALRESQSYLVEDLER [K26H] | -0.422 ± 0.13
FIDQHRAALIARVTNVEWLLDALYGNVLTDEQYQAVRAEPTNPSKMRKLFSFTPAWNWTCKDLLLQALRESQSYLVEDLER [K26N] | -0.314 ± 0.16
FIDQHRAALIARVTNVEWLLDALYGPVLTDEQYQAVRAEPTNPSKMRKLFSFTPAWNWTCKDLLLQALRESQSYLVEDLER [K26P] | -0.369 ± 0.065
FIDQHRAALIARVTNVEWLLDALYGRVLTDEQYQAVRAEPTNPSKMRKLFSFTPAWNWTCKDLLLQALRESQSYLVEDLER [K26R] | -0.178 ± 0.038
FIDQHRAALIARVTNVEWLLDALYGCVLTDEQYQAVRAEPTNPSKMRKLFSFTPAWNWTCKDLLLQALRESQSYLVEDLER [K26C] | -0.262 ± 0.094
FIDQHRAALIARVTNVEWLLDALYGQVLTDEQYQAVRAEPTNPSKMRKLFSFTPAWNWTCKDLLLQALRESQSYLVEDLER [K26Q] | -0.249 ± 0.07
FIDQHRAALIARVTNVEWLLDALYGIVLTDEQYQAVRAEPTNPSKMRKLFSFTPAWNWTCKDLLLQALRESQSYLVEDLER [K26I] | -0.094 ± 0.11
FIDQHRAALIARVTNVEWLLDALYGVVLTDEQYQAVRAEPTNPSKMRKLFSFTPAWNWTCKDLLLQALRESQSYLVEDLER [K26V] | -0.106 ± 0.051
FIDQHRAALIARVTNVEWLLDALYGEVLTDEQYQAVRAEPTNPSKMRKLFSFTPAWNWTCKDLLLQALRESQSYLVEDLER [K26E] | -0.323 ± 0.085
FIDQHRAALIARVTNVEWLLDALYGSVLTDEQYQAVRAEPTNPSKMRKLFSFTPAWNWTCKDLLLQALRESQSYLVEDLER [K26S] | -0.081 ± 0.051
FIDQHRAALIARVTNVEWLLDALYGKVSTDEQYQAVRAEPTNPSKMRKLFSFTPAWNWTCKDLLLQALRESQSYLVEDLER [L28S] | -0.812 ± 0.091
FIDQHRAALIARVTNVEWLLDALYGKVVTDEQYQAVRAEPTNPSKMRKLFSFTPAWNWTCKDLLLQALRESQSYLVEDLER [L28V] | -0.734 ± 0.078
FIDQHRAALIARVTNVEWLLDALYGKVYTDEQYQAVRAEPTNPSKMRKLFSFTPAWNWTCKDLLLQALRESQSYLVEDLER [L28Y] | -0.783 ± 0.25
FIDQHRAALIARVTNVEWLLDALYGKVMTDEQYQAVRAEPTNPSKMRKLFSFTPAWNWTCKDLLLQALRESQSYLVEDLER [L28M] | -0.767 ± 0.15
FIDQHRAALIARVTNVEWLLDALYGKVPTDEQYQAVRAEPTNPSKMRKLFSFTPAWNWTCKDLLLQALRESQSYLVEDLER [L28P] | -0.878 ± 0.14
FIDQHRAALIARVTNVEWLLDALYGKVNTDEQYQAVRAEPTNPSKMRKLFSFTPAWNWTCKDLLLQALRESQSYLVEDLER [L28N] | -0.805 ± 0.31
FIDQHRAALIARVTNVEWLLDALYGKVFTDEQYQAVRAEPTNPSKMRKLFSFTPAWNWTCKDLLLQALRESQSYLVEDLER [L28F] | -0.896 ± 0.23
FIDQHRAALIARVTNVEWLLDALYGKVATDEQYQAVRAEPTNPSKMRKLFSFTPAWNWTCKDLLLQALRESQSYLVEDLER [L28A] | -0.732 ± 0.088
FIDQHRAALIARVTNVEWLLDALYGKVDTDEQYQAVRAEPTNPSKMRKLFSFTPAWNWTCKDLLLQALRESQSYLVEDLER [L28D] | -0.935 ± 0.21

Variant | abundance fitness
FIDQHRAALIARVTNVEWLLDALYGKVITDEQYQAVRAEPTNPSKMRKLFSFTPAWNWTCKDLLLQALRESQSYLVEDLER [L28I] | -0.119 ± 0.068
FIDQHRAALIARVTNVEWLLDALYGKVRTDEQYQAVRAEPTNPSKMRKLFSFTPAWNWTCKDLLLQALRESQSYLVEDLER [L28R] | -0.871 ± 0.084
FIDQHRAALIARVTNVEWLLDALYGKVQTDEQYQAVRAEPTNPSKMRKLFSFTPAWNWTCKDLLLQALRESQSYLVEDLER [L28Q] | -0.931 ± 0.23
FIDQHRAALIARVTNVEWLLDALYGKVWTDEQYQAVRAEPTNPSKMRKLFSFTPAWNWTCKDLLLQALRESQSYLVEDLER [L28W] | -0.798 ± 0.06
FIDQHRAALIARVTNVEWLLDALYGKVETDEQYQAVRAEPTNPSKMRKLFSFTPAWNWTCKDLLLQALRESQSYLVEDLER [L28E] | -0.817 ± 0.12
FIDQHRAALIARVTNVEWLLDALYGKVKTDEQYQAVRAEPTNPSKMRKLFSFTPAWNWTCKDLLLQALRESQSYLVEDLER [L28K] | -0.807 ± 0.24
FIDQHRAALIARVTNVEWLLDALYGKLLTDEQYQAVRAEPTNPSKMRKLFSFTPAWNWTCKDLLLQALRESQSYLVEDLER [V27L] | -0.65 ± 0.071
FIDQHRAALIARVTNVEWLLDALYGKGLTDEQYQAVRAEPTNPSKMRKLFSFTPAWNWTCKDLLLQALRESQSYLVEDLER [V27G] | -0.419 ± 0.048
FIDQHRAALIARVTNVEWLLDALYGKDLTDEQYQAVRAEPTNPSKMRKLFSFTPAWNWTCKDLLLQALRESQSYLVEDLER [V27D] | -0.904 ± 0.14
FIDQHRAALIARVTNVEWLLDALYGKMLTDEQYQAVRAEPTNPSKMRKLFSFTPAWNWTCKDLLLQALRESQSYLVEDLER [V27M] | -0.722 ± 0.18
FIDQHRAALIARVTNVEWLLDALYGKHLTDEQYQAVRAEPTNPSKMRKLFSFTPAWNWTCKDLLLQALRESQSYLVEDLER [V27H] | -0.764 ± 0.26
FIDQHRAALIARVTNVEWLLDALYGKRLTDEQYQAVRAEPTNPSKMRKLFSFTPAWNWTCKDLLLQALRESQSYLVEDLER [V27R] | -0.909 ± 0.096
FIDQHRAALIARVTNVEWLLDALYGKCLTDEQYQAVRAEPTNPSKMRKLFSFTPAWNWTCKDLLLQALRESQSYLVEDLER [V27C] | 0.002 ± 0.082
FIDQHRAALIARVTNVEWLLDALYGKWLTDEQYQAVRAEPTNPSKMRKLFSFTPAWNWTCKDLLLQALRESQSYLVEDLER [V27W] | -0.734 ± 0.13
FIDQHRAALIARVTNVEWLLDALYGKFLTDEQYQAVRAEPTNPSKMRKLFSFTPAWNWTCKDLLLQALRESQSYLVEDLER [V27F] | -0.413 ± 0.1
FIDQHRAALIARVTNVEWLLDALYGKTLTDEQYQAVRAEPTNPSKMRKLFSFTPAWNWTCKDLLLQALRESQSYLVEDLER [V27T] | -0.675 ± 0.1
FIDQHRAALIARVTNVEWLLDALYGKELTDEQYQAVRAEPTNPSKMRKLFSFTPAWNWTCKDLLLQALRESQSYLVEDLER [V27E] | -0.731 ± 0.18
FIDQHRAALIARVTNVEWLLDALYGKKLTDEQYQAVRAEPTNPSKMRKLFSFTPAWNWTCKDLLLQALRESQSYLVEDLER [V27K] | -1.09 ± 0.3
FIDQHRAALIARVTNVEWLLDALYGKILTDEQYQAVRAEPTNPSKMRKLFSFTPAWNWTCKDLLLQALRESQSYLVEDLER [V27I] | -0.392 ± 0.12
FIDQHRAALIARVTNVEWLLDALYGKALTDEQYQAVRAEPTNPSKMRKLFSFTPAWNWTCKDLLLQALRESQSYLVEDLER [V27A] | -0.21 ± 0.049
FIDQHRAALIARVTNVEWLLDALYGKSLTDEQYQAVRAEPTNPSKMRKLFSFTPAWNWTCKDLLLQALRESQSYLVEDLER [V27S] | -0.583 ± 0.074
FIDQHRAALIARVTNVEWLLDALYGKQLTDEQYQAVRAEPTNPSKMRKLFSFTPAWNWTCKDLLLQALRESQSYLVEDLER [V27Q] | -0.613 ± 0.15
